Values quoted from earlier work as cited in paper PMC3634455.

How the values were obtained:
[1] = biological target: plasminogen (Homo sapiens) (UniProt P00747)
tPA (Homo sapiens) = tPA (Homo sapiens) (UniProt P00750)
UniProt P00750, sequence (P00750 36-562): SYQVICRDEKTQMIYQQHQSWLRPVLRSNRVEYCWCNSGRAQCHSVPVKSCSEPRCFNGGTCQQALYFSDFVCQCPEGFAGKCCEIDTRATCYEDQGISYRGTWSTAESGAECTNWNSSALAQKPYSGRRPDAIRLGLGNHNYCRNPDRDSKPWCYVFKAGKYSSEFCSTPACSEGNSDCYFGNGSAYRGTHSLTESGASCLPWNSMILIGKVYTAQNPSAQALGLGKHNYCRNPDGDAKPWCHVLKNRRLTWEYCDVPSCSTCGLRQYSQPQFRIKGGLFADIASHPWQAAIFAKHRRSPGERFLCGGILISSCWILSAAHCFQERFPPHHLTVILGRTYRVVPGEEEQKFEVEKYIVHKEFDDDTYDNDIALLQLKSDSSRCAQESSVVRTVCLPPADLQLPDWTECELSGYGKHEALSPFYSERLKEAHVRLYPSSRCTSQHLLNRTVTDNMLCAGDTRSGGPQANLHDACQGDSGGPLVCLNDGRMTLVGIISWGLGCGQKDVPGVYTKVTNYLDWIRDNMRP

UniProt P00747, sequence (P00747 20-810): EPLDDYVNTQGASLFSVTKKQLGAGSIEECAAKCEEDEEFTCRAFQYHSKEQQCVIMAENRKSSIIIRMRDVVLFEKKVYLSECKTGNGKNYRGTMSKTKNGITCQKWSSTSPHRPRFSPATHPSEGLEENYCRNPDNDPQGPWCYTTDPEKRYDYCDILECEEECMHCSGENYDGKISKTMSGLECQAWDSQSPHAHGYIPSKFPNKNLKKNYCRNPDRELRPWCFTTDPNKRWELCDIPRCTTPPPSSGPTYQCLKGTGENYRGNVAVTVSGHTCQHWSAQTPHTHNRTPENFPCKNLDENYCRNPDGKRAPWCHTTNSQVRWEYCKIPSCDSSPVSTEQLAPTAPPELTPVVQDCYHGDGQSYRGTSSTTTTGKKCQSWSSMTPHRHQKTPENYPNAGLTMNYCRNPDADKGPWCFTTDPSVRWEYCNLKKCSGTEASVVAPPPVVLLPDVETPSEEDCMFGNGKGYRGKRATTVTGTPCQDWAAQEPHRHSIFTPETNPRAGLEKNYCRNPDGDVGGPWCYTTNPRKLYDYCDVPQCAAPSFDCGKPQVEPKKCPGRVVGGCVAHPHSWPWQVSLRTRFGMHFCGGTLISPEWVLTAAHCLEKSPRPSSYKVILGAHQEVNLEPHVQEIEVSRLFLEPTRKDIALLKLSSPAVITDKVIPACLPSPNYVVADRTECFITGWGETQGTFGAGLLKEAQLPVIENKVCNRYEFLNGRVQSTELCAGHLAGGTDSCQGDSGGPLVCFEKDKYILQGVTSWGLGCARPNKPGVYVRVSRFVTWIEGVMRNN

- Kd [1]: 110 nM
- Kd (tPA (Homo sapiens)): 680 nM
Substance: S100A10 (annexin A2 heterotetramer) (from UniProt P60903)
